# Reference: the supplement of paper PMC12042874
# ± gives the uncertainty stated by the source.
# Assay: amyloid nucleation score (Sup35N fusion, yeast selection) (log enrichment); library NNK2; higher = more nucleation; inactive = no reads after selection
# Procedure, shortened: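 Psi-negative yeast expressed Sup35N fused to peptides of 20 random codons. They were induced 24 hours with 100 μM copper sulfate, grown 7 days at 30°C without adenine and uracil, and their plasmid inserts from input and output were Illumina-sequenced. The nucleation score is the DiMSum log enrichment of output over input reads, centred on the mode score of non-aggregating sequences. Sequences with under 100 input reads were excluded.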
row,Substance,amyloid nucleation score
1,AVEQWQ,1.58 ± 0.37
2,AVLPSIDYGCEPRL,0.136 ± 0.5
3,AVMWTK,0.669 ± 0.52
4,AVPGVC,0.72 ± 0.26
5,AVYYGSMWLGQGGIVPW,1.93 ± 0.15
6,AWNLFLFQSRL,4.7 ± 0.073
7,AWSLFYRLLPPWNE,-0.656 ± 1.1
8,AWTAETFKVLCVVMSY,0.382 ± 0.24
9,AWVYSMRQVYQLNCLDQIMY,inactive
10,AWWRGPSFFNPSWKCMNDSS,-0.84 ± 0.54
11,AYAHH,4.08 ± 0.072
12,AYMNWCTLKMRR,-0.063 ± 0.28
13,AYMVDLYYTVWPGIVLLYM,0.152 ± 0.44
14,AYRQMYTGNVR,3.97 ± 0.067
15,AYSFDKHKNKGLSTASVGHM,0.894 ± 0.55
16,AYSIFVFYTYVTTHLRHITR,inactive
17,AYWVQGCLLQMRMT,0.891 ± 0.22
18,CADFSGLFG,inactive
19,CAEAFVMGFSSKGGVINRAL,2.1 ± 0.12
20,CAGRFRCFLMSCIDCKLGVL,-0.763 ± 1
21,CALSVVTIHFCHTRAPGTPL,3.65 ± 0.082
22,CAPQSGKLGG,1.01 ± 0.59
23,CAQVRLQSAFIYSYMASVGR,3.32 ± 0.056
24,CAWFLTRWTVLSDLEGFY,-1.35 ± 0.49
25,CCAQWSNFACSV,5.392 ± 0.038

row,Substance,amyloid nucleation score
1,CCCWRECDNKRSRTLHCEAW,0.557 ± 0.66
2,CCDNY,-0.778 ± 0.54
3,CCFRLLGYAGN,-0.961 ± 0.5
4,CCGLGELNLALLRELSWRVG,1.34 ± 0.25
5,CCHHR,1.08 ± 0.28
6,CCKMGRRDLRFLSDFVLCKL,inactive
7,CCNQEVLD,0.575 ± 0.66
8,CCWAVWDLRGFTRGWRLRRG,0.509 ± 0.16
9,CDCWYFKC,5.42 ± 0.095
10,CDGAPSRLGRGLWGWSIMYG,0.921 ± 0.51
11,CDKQRFSRF,inactive
12,CDLLVPQRYSAGLPLPVVKE,1.8 ± 0.24
13,CDMEHTV,-0.302 ± 0.61
14,CDRFYSSLVNSVGYCLLNAY,1.47 ± 0.21
15,CDRLELRN,0.065 ± 0.43
16,CDSVVKRIFGTFAGVHLHME,-0.228 ± 1.1
17,CDVGFSHRYSSNYDKTWDMI,-0.7 ± 0.78
18,CDYEYGCQNKRGFRMLLKSW,inactive
19,CECETVSLTFEHWCTRGRLG,5.156 ± 0.047
20,CEFQILSN,-0.381 ± 0.56
21,CERGLFFVMY,-1.15 ± 1.1
22,CERLNAPHLHQVRIPKRYNM,0.306 ± 0.64
23,CERWRFI,-0.02 ± 1.1
24,CFAVAKEWLNAAVHGVGQFP,0.123 ± 0.38
25,CFDKLAVMACKSSGWHNPPT,0.75 ± 0.43

row,Substance,amyloid nucleation score
1,CFDPGTNRCLPWAVGVGELG,0.959 ± 0.74
2,CFFRKMPHCRLTTWRRVASI,0.675 ± 0.25
3,CFLELYSWFKDAVTTFN,inactive
4,CFLGLYGDIASIFNQ,-0.889 ± 0.45
5,CFMYT,-0.415 ± 0.21
6,CFSCFIASGDT,7.439 ± 0.026
7,CFVQLCACRYTIRNWGFRWL,inactive
8,CFVSNRDYDF,0.773 ± 0.42
9,CGKCWCEVD,0.359 ± 0.37
10,CHDMSSACLYSVGWS,inactive
11,CHISLTKWCRFRVV,-0.014 ± 0.76
12,CHLLSRSCKFYGD,-0.898 ± 1.1
13,CHNNFNCPNVLVFLARELSI,4.99 ± 0.079
14,CHNNFVYRGNAPRRHLEQGV,0.062 ± 0.77
15,CHVYYVQFVLAD,-0.604 ± 0.76
16,CIFGMDKHTYQHVVHSTLLV,0.181 ± 0.16
17,CIFYKVGLFFPCWYIVSVLS,-2.03 ± 0.75
18,CIKLRR,inactive
19,CILLGSWLVNFYVWWSRMPI,-0.031 ± 1
20,CISKLKFLGCRVE,inactive
21,CITSSSLCSDPYLCLSAKNL,inactive
22,CKALQLLKGNLIDYCVPFLV,-1.05 ± 0.48
23,CKCYTAQCWVSRNLMKRPLT,0.579 ± 0.49
24,CKGLNMFLLFSHSHSCMLRG,-1.35 ± 0.39
25,CKLEQYRASWINLVTHLDEA,0.073 ± 0.63

row,Substance,amyloid nucleation score
1,CKSSARLIDYTS,-0.682 ± 0.45
2,CKVHFW,0.596 ± 0.62
3,CKWTSKIWMRLVRKSEMSVE,1.16 ± 0.27
4,CLAFNFVFIHPSTGAFSRTS,8.38 ± 0.072
5,CLAPFHYDQYCKWESDSVSR,-0.438 ± 0.44
6,CLDPTDTMMRW,0.82 ± 0.3
7,CLIAVNTKGRVVHVYGRTGG,3.53 ± 0.093
8,CLISRLIVL,-0.038 ± 0.79
9,CLITLLIMECKYAVDLWGSV,1.04 ± 0.34
10,CLLHGCHYLSSYLKFSQSWL,inactive
11,CLMWVISNSYNECHLGEVGQ,6.56 ± 0.087
12,CLPETLVDFWFKAHDAFNFV,inactive
13,CLQCYYRMSDNCFHSTA,5.114 ± 0.04
14,CLSLFTSYV,0.415 ± 0.31
15,CLSPW,0.202 ± 0.46
16,CMARPMSVLECHSCWEDALG,0.221 ± 0.31
17,CMDYHICHIM,3.89 ± 0.11
18,CMKAYKIRLLVLEDINSSFS,-1.85 ± 0.48
19,CMKEMLVMLTCYICVSKSLI,3.66 ± 0.079
20,CMLCARLHH,4.13 ± 0.056
21,CMYVLFLRWLNQAM,inactive
22,CNDGGENGWKCTGR,0.497 ± 0.57
23,CNIAPASKFSIIMPRR,3.74 ± 0.11
24,CNMIYNDKSLPKW,-0.26 ± 0.32
25,CNPASYMSALVGGSVSRDSR,-0.076 ± 0.46

row,Substance,amyloid nucleation score
1,CNRPGSGTHGRCTVMDSTMG,0.389 ± 0.56
2,CNRSCLLGDNPCTVWRITLF,-0.644 ± 0.48
3,CNSDGWCRIGSAVLPVRSID,-0.441 ± 0.35
4,CNSIDMTHKVTLKMSFIFIE,6.703 ± 0.061
5,CNSYEYLRN,-0.035 ± 0.76
6,CNTCLLSFG,0.814 ± 0.25
7,CNTRRLISMRI,-0.234 ± 0.65
8,CNYRVA,0.276 ± 0.39
9,CNYYFVKYQGINGCGTPVKF,3.01 ± 0.12
10,CPDHNGRFGSWVGEYHVGLS,1.43 ± 0.17
11,CPFVATGDP,-0.849 ± 1.1
12,CPIYDRTQGLIGLWCLCNEC,-0.668 ± 0.34
13,CPSVSSRSRELSLLTDQEVI,0.812 ± 0.4
14,CPVSAASLSNLFDVAHNGVR,5.354 ± 0.035
15,CQGVSYHYLTACRNKLCHES,0.107 ± 0.79
16,CRCISVPCVVFVV,-0.142 ± 0.79
17,CRDSPVKNQGPYLGFM,inactive
18,CRINFTFDELVVVSQILTWL,4.07 ± 0.058
19,CRLCSGLREMQPIRLM,0.77 ± 0.51
20,CRRENRCNRWFQ,-0.602 ± 0.61
21,CRRVIAESFYDTSLSCSAVG,0.877 ± 0.47
22,CRSATEPCVLSC,0.56 ± 0.74
23,CRSCEIVLGFLLSCNMCVLS,3.79 ± 0.06
24,CRSFAFTLSNMYLMM,6.52 ± 0.082
25,CRTRGMVRLYGTRRK,inactive

row,Substance,amyloid nucleation score
1,CRVRYTGGY,0.523 ± 0.35
2,CSAATSGYYMSQDRLSDTTT,-0.184 ± 1.1
3,CSCSVIGWFLHPVATVINLT,2.73 ± 0.07
4,CSEYLCGVKVLTCWFGRRYS,0.174 ± 0.4
5,CSFGPIVAD,-1.12 ± 0.63
6,CSFLSLY,-0.485 ± 0.64
7,CSFYRSWVLTNWSANVVFTW,-0.217 ± 0.39
8,CSKDMSQKLVYRLWSIIVMA,-0.542 ± 0.33
9,CSKLAGKHVNISVGPLWRAG,0.183 ± 0.53
10,CSLFLWGLMDLLV,inactive
11,CSSSNINRFS,2.99 ± 0.12
12,CSSSVNCMFITC,7.87 ± 0.047
13,CSVSGNLQISFYGNMPINSF,-0.924 ± 0.78
14,CTAQRNGKYDHGEDSLRLSR,1.49 ± 0.36
15,CTFSVF,-1.71 ± 0.48
16,CTHNTSKVSKMVIVCPRFNL,6.218 ± 0.035
17,CTKDTHNRVGHLRSHVDGSL,0.572 ± 0.8
18,CTLRAVMSIVRGYFRCYLVC,0.255 ± 1.1
19,CTLRSLEAVLRVLIGYALRH,0.223 ± 0.3
20,CTNAGRFMTWSNFRYIG,0.501 ± 0.8
21,CTSDVGGSQERVGSIQANSN,2.48 ± 0.2
22,CTVLSDRTCYSSTERLVRIH,inactive
23,CTVRDSMAGIYLVDLVSCIR,-0.21 ± 0.6
24,CVFISLNMNKIYMLDNSGQW,8.445 ± 0.036
25,CVGGGRQKCEHNVMITLMTF,4.22 ± 0.056

row,Substance,amyloid nucleation score
1,CVGNNMCSGKNF,inactive
2,CVHTAVVRILIRAKKAGLIT,inactive
3,CVIYVKVIIMPVSIVDVGSV,-0.351 ± 0.48
4,CVLGAVYLHRLTDGCDVKFT,0.762 ± 0.81
5,CWDEQLQPS,0.744 ± 0.45
6,CWFSVYNTLVGCNLVPTKGD,6.666 ± 0.065
7,CWGGISSALRQ,0.698 ± 0.8
8,CWNDSRMCR,-0.387 ± 0.26
9,CWRNTDLKGLGNWPSLLASV,0.589 ± 0.57
10,CWVIKGRAKCV,-0.26 ± 1
11,CYARSASGVAIAVRRKRGVQ,1.23 ± 0.18
12,CYCSSL,-0.253 ± 0.2
13,CYFCWDFLIGCNFTHNAQ,7.237 ± 0.063
14,CYGDAWSWEISMFCCVCRGF,7.523 ± 0.042
15,CYHRKFVLLFFLSNR,inactive
16,CYKWLAYY,-1.44 ± 0.75
17,CYLYFIEYWFSEAPYFTSER,-0.959 ± 1.1
18,CYMVRGYSFSNRWTAHGHEM,2.51 ± 0.21
19,CYRYVGCSTYSTDQVVCAYK,6.006 ± 0.051
20,CYVLFIRSDYGTWSMVH,4.53 ± 0.051
21,CYVNWGCNGEISGIVFDSMK,inactive
22,CYVSFCKGA,0.049 ± 0.76
23,CYYMCAYRGVAK,0.637 ± 0.36
24,DACAFVCLYWNVLTRFELMP,-0.458 ± 0.32
25,DALGSYWMTAMTF,0.371 ± 0.44
